Results published in the Human Domainome abundance scans (Beltran et al. 2025).
± gives the uncertainty stated by the source.

B1: Tumor protein 63, residues 545 to 610; numbered along this chain, Q9H3D4 (parent)
chain: TDCSIVSFLARLGCSSCLDYFTTQGLTTIYQIEHYSMDDLASLKIPEQFRHAIWKGILDHRQLHEF

Variants of: B1
Test: abundance fitness (aPCA) (normalised: wild type 0, dead -1); higher = more abundant; growth selection in yeast, the domain comes from the species named
Details: Homo sapiens

Variant	abundance fitness
TDCSIVSFLARLGCSSCLDYFTTQGLTTIYQIEHYSTDDLASLKIPEQFRHAIWKGILDHRQLHEF	-0.076 ± 0.029
TDCSIVSFLARLGCSSCLDYFTTQGLTTIYQIEHYSGDDLASLKIPEQFRHAIWKGILDHRQLHEF	-0.215 ± 0.028
TDCSIVSFLARLGCSSCLDYFTTQGLTTIYIIEHYSMDDLASLKIPEQFRHAIWKGILDHRQLHEF	-0.86 ± 0.045
TDASIVSFLARLGCSSCLDYFTTQGLTTIYQIEHYSMDDLASLKIPEQFRHAIWKGILDHRQLHEF	-0.098 ± 0.021
TDCSIVSFLARLGCSSCLDYFTTQGLTTIYQIEHYNMDDLASLKIPEQFRHAIWKGILDHRQLHEF	0.009 ± 0.055
TDCSIVSFLARLGCSSCLDYFTTQGLTTIYQIEHYLMDDLASLKIPEQFRHAIWKGILDHRQLHEF	-0.177 ± 0.027
TDCSIVSFLARLGCSSCLDYFTTQGLTTIYQIEHYSMDDLASLKIPEQFRHAIWKGILDHNQLHEF	-0.05 ± 0.049
TDCSIVSFLARLGCSSCLDYFTTQGLTTIYQIEHYSMDDLASLKIPEQFRHAIWKAILDHRQLHEF	-0.075 ± 0.03
TDCSIVSFLARLGCSSCLDYFTTQGLTTIYQIEHYSMDDLASLKCPEQFRHAIWKGILDHRQLHEF	-0.283 ± 0.037
TDCSIVSFTARLGCSSCLDYFTTQGLTTIYQIEHYSMDDLASLKIPEQFRHAIWKGILDHRQLHEF	-1.04 ± 0.1
TDCSIVSFYARLGCSSCLDYFTTQGLTTIYQIEHYSMDDLASLKIPEQFRHAIWKGILDHRQLHEF	-0.783 ± 0.12
TDCSIVSFLARLGCPSCLDYFTTQGLTTIYQIEHYSMDDLASLKIPEQFRHAIWKGILDHRQLHEF	-0.086 ± 0.031
QDCSIVSFLARLGCSSCLDYFTTQGLTTIYQIEHYSMDDLASLKIPEQFRHAIWKGILDHRQLHEF	-0.033 ± 0.065
GDCSIVSFLARLGCSSCLDYFTTQGLTTIYQIEHYSMDDLASLKIPEQFRHAIWKGILDHRQLHEF	-0.027 ± 0.029
TDCSIVSFLARLGCSSCLDYFTTQGLTTIYQIEHYSMDDAASLKIPEQFRHAIWKGILDHRQLHEF	-0.967 ± 0.06
TDCSIVSFLARLGCSSCLDYFTTQGLTTIYQIEHYSMDDSASLKIPEQFRHAIWKGILDHRQLHEF	-0.701 ± 0.038
TDCSIVSFLARLGCSSCLDYFTTQGLTTIYQIKHYSMDDLASLKIPEQFRHAIWKGILDHRQLHEF	-0.112 ± 0.039
TDCSIVHFLARLGCSSCLDYFTTQGLTTIYQIEHYSMDDLASLKIPEQFRHAIWKGILDHRQLHEF	-0.069 ± 0.03
TDCSIVSFLARLGCSSCLDYFTTQGLTTIYQIEHYSMDDLASLKIPEQFRHADWKGILDHRQLHEF	-0.907 ± 0.14
TDCSIVSFLAVLGCSSCLDYFTTQGLTTIYQIEHYSMDDLASLKIPEQFRHAIWKGILDHRQLHEF	-0.171 ± 0.025
TDCSIVSFLARLGCSSCLDYFTTQGLTTIYQIEHYSMDDLASLKIPEQFRLAIWKGILDHRQLHEF	-0.029 ± 0.024

Variant	abundance fitness
TDCSIVSFLARLGCSSCLDYFTTQGLTTIYQIEHYSMDDLASLKIPEQFRAAIWKGILDHRQLHEF	-0.022 ± 0.025
TDCSIVSFLARLGCSSCLDYFTTQGLTTDYQIEHYSMDDLASLKIPEQFRHAIWKGILDHRQLHEF	-0.42 ± 0.053
TDCSIVSFLARLGCSSCLDYFTTQGLTTIYQIEHYSMIDLASLKIPEQFRHAIWKGILDHRQLHEF	-0.077 ± 0.031
TDCSIVSFLARLGCSSCLDYFTTQGLTTIYQIEHYSMQDLASLKIPEQFRHAIWKGILDHRQLHEF	-0.026 ± 0.045
TDCSIVSFLARLGCSSCLDYFETQGLTTIYQIEHYSMDDLASLKIPEQFRHAIWKGILDHRQLHEF	-0.014 ± 0.032
TSCSIVSFLARLGCSSCLDYFTTQGLTTIYQIEHYSMDDLASLKIPEQFRHAIWKGILDHRQLHEF	-0.101 ± 0.025
TFCSIVSFLARLGCSSCLDYFTTQGLTTIYQIEHYSMDDLASLKIPEQFRHAIWKGILDHRQLHEF	-0.184 ± 0.088
TDCSSVSFLARLGCSSCLDYFTTQGLTTIYQIEHYSMDDLASLKIPEQFRHAIWKGILDHRQLHEF	-0.856 ± 0.036
TDCSFVSFLARLGCSSCLDYFTTQGLTTIYQIEHYSMDDLASLKIPEQFRHAIWKGILDHRQLHEF	-0.362 ± 0.029
TDCSIVSFLARLGCSSCLDYFTTQGLTTIYQIEHYSMDDLASLKIPEQFRHAIWKGILQHRQLHEF	-0.027 ± 0.045
TDCSIVSFLARLGCSSCLDYFTTQGLTTIYQQEHYSMDDLASLKIPEQFRHAIWKGILDHRQLHEF	-0.931 ± 0.095
TDCSIVSFLARLGCSSCTDYFTTQGLTTIYQIEHYSMDDLASLKIPEQFRHAIWKGILDHRQLHEF	-0.008 ± 0.022
TDCSIVSFLARLGCSSCLDYFTTQGLTTIYQIEHYSMDDLASLWIPEQFRHAIWKGILDHRQLHEF	-0.154 ± 0.024
TDCSIVSFLARLGCSSCLDYFTTQGLTTICQIEHYSMDDLASLKIPEQFRHAIWKGILDHRQLHEF	0.005 ± 0.075
TDCSIVSFLARLGCSSCLDYFTTQGLTTIYQIEHYSMDDLATLKIPEQFRHAIWKGILDHRQLHEF	-0.01 ± 0.026
TDCSIVSFLARLGCSSCLDYFTTQGLTTIYQIEHESMDDLASLKIPEQFRHAIWKGILDHRQLHEF	-0.706 ± 0.04
TDCSIVSFLARLGCSSCLDYFTTQGLTTIYQIEHKSMDDLASLKIPEQFRHAIWKGILDHRQLHEF	-0.147 ± 0.037
TDCSIVSFLARLGCSSCLDYFTTQGLTTIYQIEHYSMDDLASLKIPEQFMHAIWKGILDHRQLHEF	-0.002 ± 0.029
TDCSIVSFLARLGCSSCLDYFTTQGLTTIYQIEHYSMDDLASLKIPEQFQHAIWKGILDHRQLHEF	-0.067 ± 0.035
TDCSIVSFLARLGCSSCLDYFTTQGLTTIYQIEHYSMDELASLKIPEQFRHAIWKGILDHRQLHEF	-0.047 ± 0.048
